B1: OR4K15 (parent)
chain: GUUAACGGUCAUAGGCCAUGGAAACUAGGAGCACCAUUUCGCUGCCAGUGAAGAAAUGAACAAAGAAAAUCUGGGCCAGGCAGGCAUCAAAAGAAAUAGUCUUGCGCUCAACCAGAAAGUCUGUAAUCAUUUUAAGGGUA

Variants of: B1
Experiment: self-cleavage, relative activity (ratio to wild type); higher = more cleavage; in vitro, sequencing; the parent is a self-cleaving ribozyme

Variant | self-cleavage
A68U G106A | 0
A67U A96G | 1.65
A67U A95G | 2.49
A69G U124A | 0.53
A67G A95U | 1.41
A68U A134G | 1.78
A67G A110U | 1.46
U70A A90G | 1.12
A68C A82U | 0.23
A67G C107U | 0.01
A69U A94G | 2.42
A68G A96G | 1.04
A67U U97C | 1.43
A67U U72C | 0.31
A67U U72A | 0.2
U72A A111U | 0.01
A69G U120A | 1.44
A69G U120C | 0.98
A69U A90G | 1.31
U70G A118G | 0.55
U72A A90G | 0.18
A68U U103C | 1.42
U70C A114U | 0.02
U70C A114C | 0

Variant | self-cleavage
A68G G123A | 1.45
U70A A89U | 1.74
U72A A126G | 0.16
U72A A126U | 0.37
A68U U108C | 0.02
A68G U133C | 1.87
U70A U72C | 0.22
U70A U72A | 0.24
A68C A118G | 1.84
U70A A116G | 0.59
A67G U108C | 0.02
A67G U108A | 0.02
A68G G79U | 0.07
A69G U133C | 1.33
A69G A82G | 0.48
A69G A82U | 0.18
A67G A126G | 1.21
A67G U97A | 1.71
A68G C121U | 0.29
A68G U120G | 1.02
A68G U120C | 0.65
A68U U120A | 1.48
A68U U120C | 1.1
U72A C128U | 0.15

Variant | self-cleavage
A67G C76U | 0.07
A67U G106C | 0.01
A67G U70A | 0.72
A67G U70G | 0.68
U70C A95G | 1.84
A69G C101U | 0.26
A67G U122G | 2.16
A67U A94G | 1.22
A69G A91G | 1.21
A69G A91U | 1.63
A68U G75C | 0.22
A69G G99U | 0.23
A68U A114U | 0.06
U70C U108A | 0.03
U70C U108C | 0.02
A67U A110G | 0.25
A67G G74U | 0.24
A69U G136A | 2.69
A67G G75A | 0.11
A69G U131C | 0.55
A68G U139A | 2.25
A67G C77U | 1.03
A67G A118C | 0.76
U70C A110G | 0.06

Variant | self-cleavage
A69G A118G | 0.98
A68G U70C | 0.51
A68G U130A | 0.91
A68G U130C | 1.13
U70C A82U | 0.37
A69U A78C | 0.31
U72A A140G | 0.32
A68U A69G | 0.98
A68G A91G | 1.18
U70G U122A | 1.34
A69G A111C | 0.02
A68C A90G | 1.24
A69U U108C | 0.02
U72A A92U | 0.13
U70C C109A | 0.16
U72A C76U | 0.28
U72A A86G | 0.17
U72A A86U | 0.32
A67G A91G | 1.07
A68G A114U | 0.04
A68G A114C | 0.04
A68G A114G | 0.68
A67U A91G | 1.91
C71A A78U | 0.26

Variant | self-cleavage
A67G G137U | 2.03
A69C U132C | 2.58
U72A A91G | 0.19
U72A A91U | 0.24
C71U A92G | 0.52
A68C A78G | 0.24
U72A A94U | 0.37
A69G G80A | 0.12
A68G A125G | 0.48
A68G U127G | 1.35
A68G U127C | 1.05
A68G U127A | 1.01
U70A U103A | 0.67
A67G G83A | 2.38
A69G A114U | 0.1
A69G A114C | 0.01
U70A A94G | 0.72
C71U A135C | 0.42
A69U G137A | 2.13
A69U G137U | 2.12
A67G A116G | 0.71
A67G A116C | 0.26
A67G A116U | 0.14
A69G A116U | 0.12

Variant | self-cleavage
A69G A116G | 0.56
A69G A92U | 1.3
A69G A92G | 0.72
A67G A125U | 0.11
U70C A117U | 0.59
A69U A126C | 1.66
A69G A78G | 0.27
A69G A78C | 0.36
A69G U70A | 1.26
A68U A91G | 1.35
A68U U72A | 0.34
A69G A86G | 1.24
U72A A82U | 0.15
A67U U120C | 1.13
A67U U120A | 2.17
U70G A94G | 1.61
A68C C88G | 1.63
U72A A114G | 0.11
A67G U120G | 1.4
A67G U120C | 0.83
A67U A89G | 1.74
A68G A86U | 1.51
A68G A86G | 1.41
U70C A126G | 0.96

Variant | self-cleavage
U70C A126U | 0.71
A68G A90U | 1.58
A68G A90G | 1.17
A67G G138A | 0.97
A68G A116U | 0.21
U70A A82U | 0.24
A69G C85U | 0.65
A67G C121A | 2.73
A68G C105G | 0.03
C71U U130C | 0.13
A68G A135G | 1.23
A69G A129G | 0.87
C71U A95G | 0.97
C71U A95U | 0.5
A67U A129U | 1.14
A68G A95G | 1.98
A67G G104A | 0.08
A68G G80A | 0.21
A69G A94G | 1.36
A69G A94U | 1.45
A68C A94G | 1.69
C71U U124C | 0.06
U70A A78G | 0.33

From the RNAGym collection of RNA variant scans (doi:10.7554/elife.90254)
